Source: paper PMC10928576, “Cpne7 deficiency induces cellular senescence and premature aging of dental pulp” (Aging Cell, 2023)

What was measured:
[1] = tested on: adipogenic stem cells (ADSCs); test: Mouse subcutaneous ex vivo transplantation (HA/TCP, PCL), ADSCs; format: in vivo, immunocompromised mice; details: adipose stem cells, rCPNE7 treatment
Description: (§1) The hDPCs, ADSCs, BMSCs, GFs, and PDLSCs (2 × 10^6) were mixed with 100 mg of hydroxyapatite/tricalcium phosphate ceramic powder (Zimmer) alone or with rCPNE7 (100 ng/mL) in an 0.5% fibrin gel. The poly ε‐caprolactone (PCL: Mw 80,000, Sigma–Aldrich, Oakville, ON, Canada) was wrapped around the mixed cells and transplanted subcutaneously into immunocompromised mice (NIHbg‐nu‐xid; Harlan Laboratories) for 6 weeks (n = 3, each group).

[2] = tested on: hDPCs; test: Mouse subcutaneous ex vivo transplantation (HA/TCP, PCL), hDPCs; design: species or system human cells in immunocompromised mice; details: hDPCs + 100 mg HA/TCP with rCPNE7 100 ng/mL in PCL, 6 weeks, vs control, n = 3
Description: as §1

[3] = tested on: hDPCs; test: Live-cell imaging of intracellular ROS (DCFDA); format: cell-based, human; details: rCPNE7 treatment 15 min after H2O2 treatment, n = 3
Description: Human DPCs were stained with DCFDA‐cellular ROS assay kit (Abcam, ab113851) for 40 min at 37°C in a humidified environment at 5% CO2. Then, live cell imaging was performed with a filter set appropriate for fluorescein (FITC) (n = 3, each group). Low light conditions were maintained to avoid photobleaching and photo‐oxidation of DCF.

[4] = tested on: hDPCs; test: RNA-sequencing of rCPNE7-treated hDPCs; format: cell-based, human; details: n = 3
Description: The isolated RNA (n = 3, each group) was shipped to Macrogen (Seoul, Korea) for the library preparation, sequencing, and analysis of data. The cDNA Library for sequencing was prepared using TruSeq Stranded mRNA LT Sample Prep Kit. Total RNA was randomly fragmented, converted to complementary DNA (cDNA), and amplified according to the manufacturer's protocol. The cDNA was then ligated to sequencing adapters. Sequencing was performed on Illumina's HiSeq2500 platform. HISAT2 was used for mapping trimmed reads to reference genome (UCSC mm10), and the transcript assembly was performed using StringTie. To identify differentially expressed genes (DEGs), the expression profile was calculated for each sample and normalized to FPKM. KEGG database and Gene Ontology were used to perform functional annotation and gene‐set enrichment analysis on DEGs for known gene annotation. Genes with |fc| 1.5 and independent T‐test raw p‐value <0.05 were counted as significant.

[5] = tested on: bone marrow stem cells (BMSCs); test: Mouse subcutaneous ex vivo transplantation (HA/TCP, PCL), BMSCs; format: in vivo, immunocompromised mice; details: rCPNE7 treatment
Description: as §1

[6] = tested on: hDPCs; test: Comet assay; format: cell-based, human; details: 24 h, 1 mM H2O2 + rCPNE7, vs H2O2 only, n = 3
Description: Human DPCs were combined with Comet Agarose (Abcam, ab238544) at 1/10 ratio (v/v), mixed by pipetting, and immediately transferred onto the top of the Comer Agarose Base Layer Slide (Abcam, ab238544). Set horizontally, the slides were incubated at 4°C in the dark for 15 min, and placed in a small basin/container containing pre‐chilled Lysis Buffer (Abcam, ab238544). They were immersed in the buffer for 1 h at 4°C in the dark. After 1 h, aspiration of the Lysis Buffer from the container was done and replaced with a pre‐chilled Alkaline Solution (Abcam, ab238544), followed by electrophoresis chamber filled with the Alkaline Electrophoresis Solution. Voltage was applied to the chamber for 30 min at 1 volt/cm. The slides were then rinsed with pre‐chilled DI H2O and replaced with cold 70% Ethanol for 5 min. The slide was removed from the 70% Ethanol and allowed to air dry. Once the slide was completely dry, staining with Vista Green DNA Dye (Abcam, ab238544) was done at room temperature for 15 min. Cells were visualized using confocal microscopy (LSM980, Zeiss, Germany) (n = 3, each group).

[7] = tested on: periodontal ligament stem cells (PDLSCs); test: Mouse subcutaneous ex vivo transplantation (HA/TCP, PCL), PDLSCs; format: in vivo, immunocompromised mice
Description: as §1
(§2) Figure S1. (A) The gingival fibroblasts (GFs) or (B) periodontal ligament stem cells (PDLSCs) were mixed with 100㎎ of hydroxyapatite/tricalcium phosphate (HA) particles alone (control) or with rCPNE7 in a poly ε-caprolactone (PCL) spaces and transplanted subcutaneously into immunocompromised mice for 6 weeks. White arrows indicate newly formed mineralized tissues. Representative immunofluorescence images of DSP (red) were observed (n=3). DAPI (blue) was counterstained to indicate the nucleus. Scale bars: 50㎛.

[8] = tested on: dentinal damage sites; details: treated onto dentinal damage sites; ref Lee et al., [2020]; cited from earlier work
Excerpt: However, little is known about how odontoblasts age and survive through the days beyond entering dormancy, which actually comprise the major part of their life span. Aging is defined as a gradual loss of physiologic tissue integrity and impaired function, ultimately leading to cell death. Aged pulp is characterized by lower cell population, pulp stem cell tiredness, and, overall, reduced responsiveness to external stimuli (Bernick & Nedelman, [1975]). It has been reported that one of the survival mechanisms of aging odontoblasts is autophagy, which involves degradation and turnover of cellular ...

[9] = tested on: hDPCs; test: γ-H2AX immunofluorescence in hDPCs; format: cell-based, human; details: rCPNE7 after 30 min of 1 mM H2O2, vs H2O2 only
Description: Human DPCs and tissue sections were treated with phosphate‐buffered saline (PBS) and 0.5% Triton X‐100 for permeabilization. After washing and blocking, cells and tissue samples were incubated overnight at 4°C with γ‐H2AX (1:100, Cell Signaling Technology, #9718) and CPNE7 (1:100) in blocking buffer (PBS and 2% bovine serum albumin). Subsequently, FITC‐conjugated anti‐rabbit secondary antibody (1:500) or Cy3‐conjugated anti‐rabbit (1:500) was applied. Cells were visualized using confocal microscopy (LSM980, Zeiss, Germany). The chromosomal DNA in the nucleus was stained with 4′,6‐diamidino‐2‐phenylindole (DAPI). The microtubules were detected using α‐TUBULIN antibodies (1:1000; Santa Cruz), and F‐ACTIN was stained with Alexa Fluor 488 or rhodamine‐conjugated phalloidin (Invitrogen). Flag‐tagged rCPNE7 was detected using Flag‐antibodies (1:500; Sigma–Aldrich), and TAU was detected by TAU antibodies (1:100; CUSABIO). Immunofluorescence staining of TAU, F‐ACTIN, and α‐TUBULIN was analyzed using the IMARIS cell imaging software (Bitplane) (n = 3, each group).

[10] = tested on: human dental pulp cells (hDPCs); test: Live-cell imaging of hDPC morphology with or without rCPNE7; format: cell-based; details: rCPNE7 100 ng/mL for 24 h, then differentiation media 7 days, vs control, n = 3
Description: (§3) The hDPCs were obtained from the Seoul National University Dental Hospital, and the experimental protocol was accepted by the Institutional Review Board of the Seoul National University (S‐D20140007). Informed consent was obtained from patients. Human DPCs were isolated and used in an in vitro experiment as described previously (Jung et al., [2011]). Human DPCs were cultured in minimum essential medium α (Gibco BRL, 12571063) supplemented with 10% heat‐inactivated fetal bovine serum (FBS; Gibco BRL, 16000044) and antibiotic‐antimycotic (Gibco BRL, 15240062) at 37°C in an atmosphere with 5% CO2. The cells were then treated with recombinant CPNE7 protein (rCPNE7, 100 ng/mL; Origene, TP306428) or CPNE7‐derived peptide (CPNE7‐DP, 10 μg/mL). After oxidative stress‐induced DNA damage using Hydrogen Peroxide Solution (H2O2; Merck, H1009) rCPNE7 was treated after replacement with a new culture medium (α‐MEM).
The morphologic change of hDPCs treated with or without rCPNE7 was measured by live‐cell imaging (n = 3, each group). After being treated with rCPNE7 for 24 h, the cells were differentiated for 7 days and scanned for 2 days. Bright‐field images of the cells were acquired using a confocal laser scanning microscopy system (LSM980, Zeiss, Germany). […] Timelapse images collected from a single Z plane were recorded at 8‐min intervals.

[11] = tested on: hDPCs
[12] = tested on: shCpne7-transfected hDPCs; test: DNA damage rescue model in shCpne7-transfected hDPCs (western blot); format: cell-based, human; details: hDPCs treated after shCpne7 transfection; rCPNE7 100 ng/mL or CPNE7-DP 10 μg/mL
Description: as §3, with “(α‐MEM). […]” for “(α‐MEM).”
Cellular proteins (30 μg) were separated by 10% or 15% sodium dodecyl sulfate‐polyacrylamide gel electrophoresis (SDS‐PAGE) and transferred to polyvinylidene fluoride (PVDF) membranes. […] Labeled protein bands were detected under an enhanced chemiluminescence system (Amersham Biosciences/GE Healthcare). […] Semi‐quantitative analyses were performed using Image J software (National Institute of Health, MD, USA) (n = 3, each group).

[13] = tested on: hDPCs; test: γ-H2AX / P21 western blot in H2O2-treated hDPCs; format: cell-based, human; details: H2O2 + rCPNE7, after 48 h, vs H2O2 only
Description: Cellular proteins (30 μg) were separated by 10% or 15% sodium dodecyl sulfate‐polyacrylamide gel electrophoresis (SDS‐PAGE) and transferred to polyvinylidene fluoride (PVDF) membranes. The PVDF membranes were blocked for 1 h with 5% nonfat dry milk in Tris‐buffered saline containing 0.1% Tween 20 (TBS‐T) and incubated overnight at 4°C with the primary antibody diluted in TBS‐T (1:5000). After washing, membranes were incubated for 1 h with the appropriate secondary antibodies. Labeled protein bands were detected under an enhanced chemiluminescence system (Amersham Biosciences/GE Healthcare). All reactions were performed in triplicate. Semi‐quantitative analyses were performed using Image J software (National Institute of Health, MD, USA) (n = 3, each group).

[14] = tested on: hDPCs; test: Senescence β-galactosidase (SA-β gal) staining of H2O2-treated hDPCs; format: cell-based, human
Description: as §3
Human DPCs were fixated with Fixative Solution (Cell Signaling Technology, #9860) at room temperature for 15 min. Rinsed twice with PBS, the cells were then stained with β‐Galactosidase Staining Solution (Cell Signaling Technology, #9860) at 37°C overnight in a dry incubator (no CO2). Cells were observed using light microscopy (Primovert, Zeiss, Germany) (n = 3, each group).

[15] = tested on: gingival fibroblasts (GFs); test: Mouse subcutaneous ex vivo transplantation (HA/TCP, PCL), GFs; format: in vivo, immunocompromised mice
Description: as §1, §2

B1: rCPNE7: recombinant CPNE7 protein (Origene, TP306428) (protein, UniProt Q9UBL6 1-633, looked up)
Copine-7: MSAGSERGAAATPGGLPAPCASKVELRLSCRHLLDRDPLTKSDPSVALLQQAQGQWVQVGRTEVVRSSLHPVFSKVFTVDYYFEEVQRLRFEVYDTHGPSGFSCQEDDFLGGMECTLGQPAQKWLLQVVMRVSVDVLGPAGHCAKHFLCCTESSHLARTGPSFLLRYDDLCLPWATAGAVRWWTCRGGHTQGWQIVAQKKVTRPLLLKFGRNAGKSTITVIAEDISGNNGYVELSFRARKLDDKDLFSKSDPFLELYRVNDDQGLQLVYRTEVVKNNLNPVWEAFKVSLSSLCSCEETRPLKCLVWDYDSRGKHDFIGEFSTTFEEMQKAFEEGQAQWDCVNPKYKQKRRSYKNSGVVVLADLKFHRVYSFLDYIMGGCQIHFTVAIDFTASNGDPRNSCSLHYINPYQPNEYLKALVSVGEICQDYDSDKRFSALGFGARIPPKYEVSHDFAINFNPEDDECEGIQGVVEAYQNCLPRVQLYGPTNVAPIISKVARVAAAEESTGKASQYYILLILTDGVVTDMADTREAIVRASRLPMSIIIVGVGNADFTDMQVLDGDDGVLRSPRGEPALRDIVQFVPFRELKNASPAALAKCVLAEVPKQVVEYYSHRGLPPRSLGVPAGEASPGCTP
[1]
  odontoblastic differentiation upon treatment: did not undergo odontoblastic differentiation
[2]
  odontoblast-like differentiation and dentin-like tissue-forming capacity ex vivo: enhanced odontoblast‐like differentiation and dentin‐like tissue‐forming capacity
[3]
  intracellular ROS level (DCFDA fluorescence): gradually decreased back to the normal level
[4]
  mRNA expression levels of histone and chromatin-related genes: significantly increased
[5]
  odontoblastic differentiation upon treatment: did not undergo odontoblastic differentiation
[6]
  length of comet tail (fragmented DNA): much shorter
[7]; PDLSCs + HA/TCP with rCPNE7 in PCL spaces, 6 weeks, vs control, n = 3
  amount of newly formed DSP-positive mineralized tissue: slightly greater amount
[7]; PDLSCs, rCPNE7 treatment
  odontoblastic differentiation upon treatment: did not undergo odontoblastic differentiation
[8]
  dentin formation at dentinal damage sites: tertiary dentin formation of tubular nature
[9]
  accumulation of DNA damage (γ-H2AX immunofluorescence): rarely observed
[10]
  cellular process morphology: elongation of a uni‐directional cellular process was observed
[11]; rCPNE7 after 30 min treatment of 1 mM or 2 mM H2O2, 48 h, vs H2O2 only
  cell viability (WST-8): cell viability was higher
[11]; rCPNE7 after 30 min treatment of H2O2, vs H2O2 only
  cell-to-cell contact (light microscopy): more organized
[12]
  expression level of γ-H2AX (western blot): evidently diminished
[13]
  protein expression level of γ-H2AX (western blot): hardly detected
[14]; hDPCs in growth media containing rCPNE7 for 72 h after oxidative stress (1 mM H2O2) for an hour, vs control
  progress of cellular senescence (SA-β gal): progressed more slowly than the control
[14]; hDPCs passage 3, 1 mM H2O2 + rCPNE7, an hour later, vs H2O2 only, n = 3
  number of SA-β gal-positive dental pulp cells: significantly decreased
[15]; GFs + HA/TCP with rCPNE7 in PCL spaces, 6 weeks, vs control, n = 3
  amount of newly formed DSP-positive mineralized tissue: slightly greater amount
[15]; GFs, rCPNE7 treatment
  odontoblastic differentiation upon treatment: did not undergo odontoblastic differentiation
